Measured values taken from patent publication US20220347236A1 (GL INNOVATION, published 2022).

Experiments:
[1] = target: T1, human IgE (human, UniProt P01854-1 1-428); assay: SPR (ProteOn XPR36), ratio of KD to that of omalizumab
T1 construct: Bought human IgE; also called human IgE (Calbiochem)
Method: (§1) The experiments were conducted by identifying zero base using 25 mM NaOH as a regeneration buffer, and then repeating the above steps. Thereafter, a binding curve was identified using a protein binding analyzer (ProteOn XPR36, Bio-Rad Laboratories, Inc., USA).

[2] = target: T1, human IgE; assay: SPR (ProteOn XPR36), ratio of ka to that of omalizumab
Method: as §1

[3] = target: T1, human IgE; assay: SPR (ProteOn XPR36), ratio of kd to that of omalizumab
Method: as §1

[4] = target: T1, human IgE; assay: SPR (ProteOn XPR36, GLC chip), IgE coated, protein flowed; KD = kd/ka
Method: as §1

[5] = target: T1, human IgE; assay: SPR (ProteOn XPR36, GLC chip), IgE coated, protein flowed at various concentrations
Method: as §1

[6] = target: T1, human IgE; assay: cell-based or functional assay
[7] = target: T2, mouse IgE (anti-dinitrophenyl IgE) (mouse, UniProt P06336 1-421); assay: cell-based or functional assay
T2 sequence (P06336 whole entry): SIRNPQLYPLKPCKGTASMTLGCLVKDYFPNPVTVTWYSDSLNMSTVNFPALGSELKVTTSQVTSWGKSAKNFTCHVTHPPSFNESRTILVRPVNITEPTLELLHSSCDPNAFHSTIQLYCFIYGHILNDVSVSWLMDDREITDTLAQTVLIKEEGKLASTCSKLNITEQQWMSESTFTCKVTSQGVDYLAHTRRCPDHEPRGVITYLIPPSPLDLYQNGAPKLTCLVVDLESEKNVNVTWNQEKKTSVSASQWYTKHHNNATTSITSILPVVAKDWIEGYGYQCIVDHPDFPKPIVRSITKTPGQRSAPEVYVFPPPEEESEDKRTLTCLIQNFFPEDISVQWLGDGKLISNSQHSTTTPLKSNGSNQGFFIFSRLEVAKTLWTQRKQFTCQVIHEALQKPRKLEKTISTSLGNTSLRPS

[8] = target: T2, mouse IgE (anti-dinitrophenyl IgE); assay: cell-based or functional assay; remark: listed apart in the source
[9] = target: T1, human IgE; assay: SPR (ProteOn XPR36), human IgE
[10] = target: T1, human IgE; assay: SPR (ProteOn XPR36), ratio of KD of omalizumab to KD of IgETRAP
Method: as §1

[11] = target: T1, human IgE; assay: SPR kinetics on IgE (Table 3), omalizumab as reference; paragraph 125 ties the 69-fold end to FcεRIαECD-Fc2ST
Method: as §1

[12] = target: T1, human IgE; assay: SPR kinetics on IgE (Table 3), omalizumab as reference; paragraph 125 ties the 1.5-fold end to FceR1αECD-Fc2ST
Method: as §1

T1 sequence (P01854 other isoform, or with tags, fused parts or gaps): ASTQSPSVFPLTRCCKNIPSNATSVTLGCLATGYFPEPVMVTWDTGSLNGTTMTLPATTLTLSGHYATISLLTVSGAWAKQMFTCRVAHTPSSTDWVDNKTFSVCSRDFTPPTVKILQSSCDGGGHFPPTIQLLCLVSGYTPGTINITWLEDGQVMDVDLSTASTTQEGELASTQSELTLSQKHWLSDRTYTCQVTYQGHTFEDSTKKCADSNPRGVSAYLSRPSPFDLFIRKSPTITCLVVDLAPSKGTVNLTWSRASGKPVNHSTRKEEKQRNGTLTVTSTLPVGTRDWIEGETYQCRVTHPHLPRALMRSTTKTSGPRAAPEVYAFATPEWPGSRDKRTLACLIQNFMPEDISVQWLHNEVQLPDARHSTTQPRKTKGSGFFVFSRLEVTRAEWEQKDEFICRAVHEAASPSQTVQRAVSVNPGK

fold of KD against omalizumab [1] [fold] | fold of ka against omalizumab [2] [fold] | fold of kd against omalizumab [3] [fold] | Kd [4] [nM] | koff [5] [s⁻¹] | kon [5] [M⁻¹ s⁻¹] | other results | Binder
22 | 2 | 45 | 0.672 | 0.000133 | 198000 |  | FcεRIαECD-Fc3 (Fc fusion) VPQKPKVSLNPPWNRIFKGENVTLTCNGNNFFEVSSTKWFHNGSLSEETNSSLNIVNAKFEDSGEYKCQHQQVNESEPVYLEVFSDWLLLQASAEVVMEGQPLFLRCHGWRNWDVYKVIYYKDGEALKYWYENHNISITNATVEDSGTYYCTGKVWQLDYESEPLNITVIKAPREKYWLQAQPQAEGSLAKATTAPATTRNTGRGGEEKKGSKEKEEQEERETKTPECPSHTQPLGVFLFPPKPKDTLMISRTPEVTCVVVDVSQEDPEVQFNWYVDGVEVHNAKTKPREEQFNSTYRVVSVLTVLHQDWLNGKEYKCKVSNKGLPSSIEKTISKAKGQPREPQVYTLPPSQEEMTKNQVSLTCLVKGFYPSDIAVEWESNGQPENNYKTTPPVLDSDGSFFLYSRLTVDKSRWQEGNVFSCSVMHEALHNHYTQKSLSLSLGK
24 | 1.7 | 40 | 0.621 | 0.000149 | 240000 |  | FcεRIαECD-Fc3ST (Fc fusion, sialic acid added (α-2,6-sialic acid transferase co-expressed), Dimer; also called FcεRIαECD-Fc3 + a2,6-ST) VPQKPKVSLNPPWNRIFKGENVTLTCNGNNFFEVSSTKWFHNGSLSEETNSSLNIVNAKFEDSGEYKCQHQQVNESEPVYLEVFSDWLLLQASAEVVMEGQPLFLRCHGWRNWDVYKVIYYKDGEALKYWYENHNISITNATVEDSGTYYCTGKVWQLDYESEPLNITVIKAPREKYWLQAQPQAEGSLAKATTAPATTRNTGRGGEEKKGSKEKEEQEERETKTPECPSHTQPLGVFLFPPKPKDTLMISRTPEVTCVVVDVSQEDPEVQFNWYVDGVEVHNAKTKPREEQFNSTYRVVSVLTVLHQDWLNGKEYKCKVSNKGLPSSIEKTISKAKGQPREPQVYTLPPSQEEMTKNQVSLTCLVKGFYPSDIAVEWESNGQPENNYKTTPPVLDSDGSFFLYSRLTVDKSRWQEGNVFSCSVMHEALHNHYTQKSLSLSLGK
69 | 1.5 | 106 | 0.216 | 5.69e-05 | 264000 | IC50 of mast cell inhibition (β-hexosaminidase release, human FcεRI-expressing mouse bone marrow-derived mast cells, human IgE 1 ug/mL) [6]: ~0.0112 µg/mL; fold higher inhibitory ability on mast cell activity than Xolair [6]: 58 fold; IC50 of inhibition of degranulation of mouse bone marrow-derived mast cells (β-hexosaminidase release) in the presence of 1 µg/ml mouse IgE [7]: 0.45 µg/mL; Average inhibition ratio (%) of mast cell degranulation at IgETRAP 0.016 ug/mL (0.11 nM; IgE/IgETRAP molar ratio 47.8), anti-DNP IgE 1 ug/mL [8]: 2.12%; Average inhibition ratio (%) of mast cell degranulation at IgETRAP 0.063 ug/mL (0.42 nM; IgE/IgETRAP molar ratio 12.5), anti-DNP IgE 1 ug/mL [8]: 12.4%; Average inhibition ratio (%) of mast cell degranulation at IgETRAP 0.25 ug/mL (1.67 nM; IgE/IgETRAP molar ratio 3.15), anti-DNP IgE 1 ug/mL [8]: 13.8%; Average inhibition ratio (%) of mast cell degranulation at IgETRAP 0.5 ug/mL (3.33 nM; IgE/IgETRAP molar ratio 1.58), anti-DNP IgE 1 ug/mL [8]: 49.4%; Average inhibition ratio (%) of mast cell degranulation at IgETRAP 1 ug/mL (6.67 nM; IgE/IgETRAP molar ratio 0.79), anti-DNP IgE 1 ug/mL [8]: 99.3%; Average inhibition ratio (%) of mast cell degranulation at IgETRAP 2 ug/mL (13.3 nM; IgE/IgETRAP molar ratio 0.40), anti-DNP IgE 1 ug/mL [8]: 99.4%; Average inhibition ratio (%) of mast cell degranulation at IgETRAP 4 ug/mL (26.7 nM; IgE/IgETRAP molar ratio 0.20), anti-DNP IgE 1 ug/mL [8]: 99.8%; Kd [9]: 0.215 nM; koff [9]: 5.69e-05 s⁻¹; kon [9]: 264000 M⁻¹ s⁻¹; fold of dissociation rate (Kd) against omalizumab [3]: ~94.5 fold; Comparison of KD [Omalizumab/IgETRAP] [10]: ~69 fold; fold change of equilibrium dissociation constant (KD) against omalizumab (printed 'higher'; meant as stronger binding) [11]: 22 to 69 fold; fold lower association rate (ka) than omalizumab [12]: 1.5 to 2 fold | FcεRIαECD-Fc2ST (Fc fusion, sialic acid added (α-2,6-sialic acid transferase co-expressed), Homodimer; also called IgETRAP; FceR1αECD-Fc2ST) VPQKPKVSLNPPWNRIFKGENVTLTCNGNNFFEVSSTKWFHNGSLSEETNSSLNIVNAKFEDSGEYKCQHQQVNESEPVYLEVFSDWLLLQASAEVVMEGQPLFLRCHGWRNWDVYKVIYYKDGEALKYWYENHNISITNATVEDSGTYYCTGKVWQLDYESEPLNITVIKAPREKYWLQRNTGRGGEEKKGSKEKEEQEERETKTPECPSHTQPLGVFLFPPKPKDTLMISRTPEVTCVVVDVSQEDPEVQFNWYVDGVEVHNAKTKPREEQFNSTYRVVSVLTVLHQDWLNGKEYKCKVSNKGLPSSIEKTISKAKGQPREPQVYTLPPSQEEMTKNQVSLTCLVKGFYPSDIAVEWESNGQPENNYKTTPPVLDSDGSFFLYSRLTVDKSRWQEGNVFSCSVMHEALHNHYTQKSLSLSLGK
38 | 1.9 | 73 | 0.388 | 8.29e-05 | 214000 |  | FcεRIαECD-Fc2 (Fc fusion, also called FcεRIα ECD fusion protein; polypeptide dimer) VPQKPKVSLNPPWNRIFKGENVTLTCNGNNFFEVSSTKWFHNGSLSEETNSSLNIVNAKFEDSGEYKCQHQQVNESEPVYLEVFSDWLLLQASAEVVMEGQPLFLRCHGWRNWDVYKVIYYKDGEALKYWYENHNISITNATVEDSGTYYCTGKVWQLDYESEPLNITVIKAPREKYWLQRNTGRGGEEKKGSKEKEEQEERETKTPECPSHTQPLGVFLFPPKPKDTLMISRTPEVTCVVVDVSQEDPEVQFNWYVDGVEVHNAKTKPREEQFNSTYRVVSVLTVLHQDWLNGKEYKCKVSNKGLPSSIEKTISKAKGQPREPQVYTLPPSQEEMTKNQVSLTCLVKGFYPSDIAVEWESNGQPENNYKTTPPVLDSDGSFFLYSRLTVDKSRWQEGNVFSCSVMHEALHNHYTQKSLSLSLGK
